We go through two molecules from patent US20230218738A1 (Pfizer, published 2023).

Assay in all cases: BLI (Octet), F on anti-HIS tip, 20 nM mAb
The target of assay [1] is T1, RSV F protein mutant pXCS830 (RSV A2, UniProt P03420 26-109).
T1 chain 1: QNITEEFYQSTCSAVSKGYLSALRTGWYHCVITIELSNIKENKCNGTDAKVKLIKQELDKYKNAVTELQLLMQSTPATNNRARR
T1 chain 2: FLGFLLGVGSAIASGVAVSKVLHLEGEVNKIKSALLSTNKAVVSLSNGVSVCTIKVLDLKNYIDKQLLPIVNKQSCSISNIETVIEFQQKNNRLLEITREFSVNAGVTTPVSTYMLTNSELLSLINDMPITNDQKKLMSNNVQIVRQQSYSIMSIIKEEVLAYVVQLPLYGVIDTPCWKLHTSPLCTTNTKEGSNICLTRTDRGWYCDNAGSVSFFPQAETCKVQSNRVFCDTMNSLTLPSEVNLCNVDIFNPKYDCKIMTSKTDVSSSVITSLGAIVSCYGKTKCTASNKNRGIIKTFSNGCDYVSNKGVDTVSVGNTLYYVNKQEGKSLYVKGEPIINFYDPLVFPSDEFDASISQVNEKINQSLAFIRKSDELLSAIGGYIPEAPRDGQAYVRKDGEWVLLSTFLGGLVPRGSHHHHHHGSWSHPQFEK

The target of assay [2] is RSV F protein mutant pXCS898 (RSV A2, UniProt P03420 26-109).
The target in assay [3] is T2, RSV F protein mutant pXCS845 (RSV A2, UniProt P03420 26-109).
T2 chain 1: T1 chain 1 with C30S, T78C
T2 chain 2: T1 chain 2 with I12C, C52L, I54S, D350S

Assay [4] has as its target RSV F protein mutant pXCS806 (RSV A2, UniProt P03420 26-109).
For assay [5], the target named is T3, RSV F protein mutant pXCS856 (RSV A2, UniProt P03420 26-109).
T3 chain 1: T1 chain 1
T3 chain 2: T1 chain 2 with I54S, V160I, D350S

In assay [6] the target is RSV F protein mutant pXCS877 (RSV A2, UniProt P03420 26-109).
Assay [7] deals with RSV F protein mutant pXCS805 (RSV A2, UniProt P03420 26-109).
Assay [8] addresses T4, RSV F protein mutant pXCS855 (RSV A2, UniProt P03420 26-109).
T4 chain 1: T1 chain 1
T4 chain 2: T1 chain 2 with D350S

Assay [9] concerns the target T5, RSV F protein mutant pXCS882 (RSV A2, UniProt P03420 26-109).
T5 chain 1: T1 chain 1
T5 chain 2: T1 chain 2 with L6C, V160I, N235C, D350S, E351Q, D353S

Positions count from the first letter of the chain named.

B1: AM22 (antibody, V domains shown)
VH: QVQLVQSGAEVKKPGATVKVSCKISGHTLIKLSIHWVRQAPGKGLEWMGGYEGEVDEIFYAQKFQHRLTVIADTATDTVYMELGRLTSDDTAVYFCGTLGVTVTEAGLGIDDYWGQGTLVTVSS
VL: EIVLTQSPGTLSLSPGERATLSCRASQIVSRNHLAWYQQKPGQAPRLLIFGASSRATGIPVRFSGSGSGTDFTLTINGLAPEDFAVYYCLSSDSSIFTFGPGTKVDFK
B1: the “Response (nm shift)” value stood at 0.465 nm in assay [1]; 0.416 nm in assay [2]; 0.314 nm in assay [3]; 0.152 nm in [4]; 0.568 nm in assay [5]; 0.213 nm in assay [6]. Besides, the “Response (nm shift)” value stood at 0.173 nm in [7], 0.523 nm in assay [8] and 0.219 nm in [9].

B2: MPE8 (antibody, V domains shown)
VH: EVQLVESGGGLVKPGGSLRLSCAASGFTFSSYSMNWVRQAPGKGLEWVSSISASSSYSDYADSAKGRFTISRDNAKTSLFLQMNSLRAEDTAIYFCARARATGYSSITPYFDIWGQGTLVTVSS
VL: QSVVTQTPSVSGAPGQRVTISCTGSSSNIGAGYDVHWYQQLPGTAPKLLIYDNNNRPSGVPDRFSASKSGTSASLAITGLQAEDEADYYCQSYDRNLSGVFGTGTKVTVL
notes: also called MPEG
As for B2, the “Response (nm shift)” value came to 0.923 nm in [1]; 0.699 nm in assay [3]; 1.06 nm in assay [5]; 0.982 nm in assay [8]; 0.691 nm in assay [9].
